# Laboratory results taken from US20250051427A1, “METHODS OF USING AN ANTI-AMYLOID BETA PROTOFIBRIL ANTIBODY AND ANTI-TAU ANTIBODY” (published 2025).
# Key:
# [1] = target: T1, MTBR-tau (microtubule binding region tau) in CSF (Homo sapiens); assay: E2814-bound and free MTBR-tau in CSF after a single E2814 infusion of 3 mg/kg
# [2] = target: T1, MTBR-tau (microtubule binding region …); assay: E2814-bound and free MTBR-tau in CSF after a single E2814 infusion of 10 mg/kg
# [3] = target: T1, MTBR-tau (microtubule binding region …); assay: E2814-bound and free MTBR-tau in CSF after a single E2814 infusion of 30 mg/kg
binder,measurement,setting,value
"E2814 (antibody, V domains shown) VH: EVQLLESGGGLVQPGGSLRLSCAASGYTFTTYWITWVRQAPGKGLEWVSDIYPGSSISNYNEKFKSRFTISVDNSKNTLYLQMNSLRAEDTAVYYCAREDGYDAWFAYWGQGTLVTVSS VL: DIQMTQSPSSLSASVGDRVTITCRSSQSILHSNGNTYLEWYQQKPGKAPKLLISKVSNRFSGVPSRFSGSGSGTDFTLTISSLQPEDFATYYCFQGSHVPFTFGQGTKLEIKR","target engagement (TE), fraction (%) of bound MTBR-tau relative to total MTBR-tau",[1],~26%
same,"target engagement (TE), fraction (%) of bound MTBR-tau relative to total MTBR-tau",[2],~45%
same,"target engagement (TE), fraction (%) of bound MTBR-tau relative to total MTBR-tau",[3],~60%
